Measurements reported in publication PMC7948647, “Region 4 of the RNA polymerase σ subunit counteracts pausing during initial transcription”.

What was measured:
[1] = molecular target: RNAP core from E. coli (EcoRNAP core) (E. coli) (UniProt P0A8V2)
[2] = molecular target: RNAP core from E. coli (EcoRNAP core) (E. coli) (UniProt P0A8V2); remark: listed apart in the source
[3] = molecular target: RNA polymerase core (EcoRNAP) (Escherichia coli, UniProt P0A7Z4;P0A8V2;P0A8T7;P0A800 1-329;1-1342;1-1407;2-91); assay: pull-down (Ni-agarose RNA retention); 1 M NaCl wash; 40 mM HEPES pH 7.9, 5 mM MgCl2, 50 mM NaCl, 5% glycerol; binding to Ni-NTA at 18 C, washes with 250 mM NaCl (1 M for core controls), labeling at 22 C; details: protein: recombinant; tags: C-terminal 6xHis on rpoC; chain copies: 2;1;1;1; 9-bp downstream duplex, 10-nt 3' template overhang; 13-nt RNA with unpaired 5' end
[4] = molecular target: full-length σ^70 subunit of E. coli RNA polymerase (E. coli) (UniProt P00579)
full-length σ^70 subunit of E. coli RNA polymerase (E. coli), sequence (P00579 whole entry): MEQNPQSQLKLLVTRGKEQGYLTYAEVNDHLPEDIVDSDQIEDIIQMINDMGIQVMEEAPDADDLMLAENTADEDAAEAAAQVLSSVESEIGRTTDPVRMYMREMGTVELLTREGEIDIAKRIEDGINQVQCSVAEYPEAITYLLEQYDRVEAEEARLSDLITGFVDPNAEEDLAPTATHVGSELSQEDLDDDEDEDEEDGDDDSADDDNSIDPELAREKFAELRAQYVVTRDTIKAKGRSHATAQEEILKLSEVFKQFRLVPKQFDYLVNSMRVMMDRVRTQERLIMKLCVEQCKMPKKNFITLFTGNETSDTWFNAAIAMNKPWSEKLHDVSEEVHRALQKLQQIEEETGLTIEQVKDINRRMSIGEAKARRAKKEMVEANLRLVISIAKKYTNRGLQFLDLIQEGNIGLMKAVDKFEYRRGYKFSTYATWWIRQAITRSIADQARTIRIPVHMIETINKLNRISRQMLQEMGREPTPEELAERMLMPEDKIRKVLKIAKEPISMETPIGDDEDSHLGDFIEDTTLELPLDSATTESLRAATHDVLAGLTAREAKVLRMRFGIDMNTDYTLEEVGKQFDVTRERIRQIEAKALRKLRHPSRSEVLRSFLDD

RNAP core from E. coli (EcoRNAP core) (E. coli), sequence (P0A8V2 whole entry, looked up): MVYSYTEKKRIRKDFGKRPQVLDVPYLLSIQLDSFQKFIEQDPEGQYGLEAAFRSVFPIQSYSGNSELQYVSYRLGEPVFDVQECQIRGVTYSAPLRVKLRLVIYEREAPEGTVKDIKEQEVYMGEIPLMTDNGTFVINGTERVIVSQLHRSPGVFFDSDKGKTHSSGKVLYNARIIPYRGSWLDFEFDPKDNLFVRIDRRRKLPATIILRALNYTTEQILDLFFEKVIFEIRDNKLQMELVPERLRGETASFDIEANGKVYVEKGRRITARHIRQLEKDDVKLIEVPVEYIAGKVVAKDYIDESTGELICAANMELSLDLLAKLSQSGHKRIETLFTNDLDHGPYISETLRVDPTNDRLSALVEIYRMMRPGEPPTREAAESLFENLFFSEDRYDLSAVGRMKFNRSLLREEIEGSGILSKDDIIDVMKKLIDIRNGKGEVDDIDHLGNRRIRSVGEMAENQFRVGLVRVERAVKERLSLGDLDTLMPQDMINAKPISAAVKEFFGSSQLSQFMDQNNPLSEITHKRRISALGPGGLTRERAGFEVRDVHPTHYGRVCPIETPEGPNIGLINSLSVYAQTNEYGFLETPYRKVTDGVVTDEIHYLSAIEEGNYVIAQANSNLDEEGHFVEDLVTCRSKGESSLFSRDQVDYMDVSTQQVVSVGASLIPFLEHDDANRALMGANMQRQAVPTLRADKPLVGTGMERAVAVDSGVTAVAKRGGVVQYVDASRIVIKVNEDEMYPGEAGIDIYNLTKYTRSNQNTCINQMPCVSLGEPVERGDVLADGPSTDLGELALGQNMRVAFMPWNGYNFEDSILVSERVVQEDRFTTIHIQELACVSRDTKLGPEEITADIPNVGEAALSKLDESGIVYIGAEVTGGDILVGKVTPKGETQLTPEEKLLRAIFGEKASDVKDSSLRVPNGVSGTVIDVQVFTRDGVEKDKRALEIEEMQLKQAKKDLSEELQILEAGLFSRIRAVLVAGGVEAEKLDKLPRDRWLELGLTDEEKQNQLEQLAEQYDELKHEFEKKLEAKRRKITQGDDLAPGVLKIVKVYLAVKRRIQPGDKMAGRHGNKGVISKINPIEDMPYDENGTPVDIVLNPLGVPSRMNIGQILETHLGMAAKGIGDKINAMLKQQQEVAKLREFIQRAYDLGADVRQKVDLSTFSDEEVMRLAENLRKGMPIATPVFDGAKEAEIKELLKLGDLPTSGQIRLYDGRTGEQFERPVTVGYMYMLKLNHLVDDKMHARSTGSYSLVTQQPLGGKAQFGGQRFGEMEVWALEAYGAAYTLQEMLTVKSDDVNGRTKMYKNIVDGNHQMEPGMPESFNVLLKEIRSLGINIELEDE

Molecule: σΔ4 fragment of σ^70 (residues 1–529) (from UniProt P00579 1-529) (domain or fragment)
- translocation efficiency (fraction of 5-nt RNA) in extension of the 2-nt primer GpC on the LDT scaffold [1]: < 50%

Molecule: σ_(Δ3–4) fragment of σ^70 (residues 1–448) (from UniProt P00579 1-448) (domain or fragment)
- translocation efficiency (fraction of 5-nt RNA) in extension of the 2-nt primer GpC on the LDT scaffold [1]: < 50%

Molecule: full-length σ^70 subunit of E. coli RNA polymerase (from UniProt P00579 1-613) (natural protein)
- translocation efficiency (fraction of 5-nt RNA) in extension of the 2-nt primer GpC on the LDT scaffold; core alone about 40% [2]: 95%

Molecule: σ_(Δ4.2) fragment of σ^70 (residues 1–553) (from UniProt P00579 1-553) (domain or fragment)
- translocation efficiency (fraction of 5-nt RNA) in extension of the 2-nt primer GpC on the LDT scaffold [1]: < 50%

B1: SDT scaffold + pRNA13 (mixed)
RNA: AAUUGUGAGCGGA
DNA 1: TGCAATTGTCATCCGCTCA
DNA 2: ACAATTGCA
- binding result [3]: binds

B2: T4 phage coactivator protein AsiA (natural protein)
chain: MNKNIDTVREIITVASILIKFSREDIVENRANFIAFLNEIGVTHEGRKLNQNSFRKIVSELTQEDKKTLIDEFNEGFEGVYRYLEMYTNK
- inhibition by 1 μM AsiA of abortive transcription by σ^70-EcoRNAP at the lacUV5 promoter (AsiA used to disrupt the pair σ4.2 of σ^70 and β-FTH of the core) [4]: 85%
- inhibition by 1 μM AsiA of de novo 3-nt RNA synthesis by σ^70-EcoRNAP on the SDT2 scaffold (AsiA used to disrupt the pair σ4.2 of σ^70 and β-FTH of the core) [4]: 50%
